assay: yeast display, Sf9 membrane polyspecificity reagent, FACS + sequencing; frameworks hold sequencing errors
Procedure, shortened: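 In a synthetic yeast display library (Saccharomyces cerevisiae BJ5465), nanobody expression was induced with galactose for 36–48 hours. FACS gates were set low and high (top ~1%) using anti-HA fluorescence for expression and streptavidin fluorescence for binding of the Sf9 membrane reagent. Each polyreactivity label is drawn from the gate of origin.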

Sequence | polyreactivity (PSR sort gate)
QVKLVESGGGLVQAGGSLRLSCAASGSTFWIYAMAWYRQAPGKERELVAAISWRGGRTYYADSVKGRFTISRDNAKNTVYLQMNSLKPEDSAVYYCYAQKRDGSMGYWGQGTQVTVSS | high polyreactivity
QVKLVESGGGLVQAGGSLRLSCAASGSTFYKYTMGWNRQEPGKGRELVAAINWSGSTYYADSVKGRFTISRDNAKNTVYLQMNSLKTEDTAVYYCAATYIYRYDYWGQGTQVTVSS | high polyreactivity
QVKLVESGGGLVQAGGSLRLSCADSGRIFYIYAMGWYRQSPGKERELVAAISSGGTTNYADSVKGRLTISRDNAKNTVYLQMNSLKPEDTAVYYCACYWRSRNRFYWGQGTQVTVSS | high polyreactivity
QVKLVESGGGLVQAGGSLRLSCGASGSIFRWYALGWYRQAPGKERELVAAIDYSGGSTYYADSVKGRFTISRDNAKNTVYLQMNSLKPEDTAVYYCAATAFYGGFLRYDYWGQGTQVTVSS | low polyreactivity
QVKLVESGGGLVQAGGSLRLSCGASVGTFYRYSMVWFRQAPGKERELVAVISKRGGTTYYADSVKRRFTISRDNANNTVNLQMNSLKPEDTAVYYCADRPYYWGQGTQVTVSS | high polyreactivity
QVKLVESGGGLVQAGGSLRLSCPASGFIFYDYVMGWYRQAPGKERELVAAISSNGGSTYYADSVKGRFSISRDNAKYTVYLQMNSLKPEDTAVYYCAAEGKSYPWPWYFDYWGQGTQVTVSS | high polyreactivity
QVKLVESGGGLVQAGGSLRLSCPASGRIFYTNARGWSRQQPGQESEFVAAISYSGGTTYYADSVKGRFTISRDNAKNNVYLQMNSLKPEDTAVYYCARRYRSYYYRSKMDYWGQGTQVTVSS | high polyreactivity
QVKLVESGGGLVQAGGSLRLTCAASGSNFDINAMGWYRQAPGKERELVAAISWSGGDTYADSVKGRFTISRDNAKITVYLQMNCLKPEDTAVYYCDTGDPHEEQYYYDYCGQGTQVTVSS | low polyreactivity
QVKLVESGGGLVQAGGSRRLSCAASGLIFYSYAMGWSRQAPGKERELVAAISSRGGSTYYADSVKGRFTISRDNAKNTVYLQMNSLKPDDTAVYYCNAYFLLPHYDYWGQGTQVTVSS | low polyreactivity
QVKLVESGGGLVQEGASLRLSCAASGRIFGNYAMGWYRQAPGKERELVAAIDLSGDSTYYADSVKGRFTISRDNAKNTVYLQMNSLKPEDTAVYYCAATDWFSEYYWGQGTQVTVSS | low polyreactivity
QVKLVESGGGVVQAGGSLSLSCAASGRIFGGNAMGWYRQAPGKERELVAAISRTGGSTYYADSVKGRFTISRDIAKNTVYLQMNSLKPEDTAVNYCNAVYRYAHPMEYWGQGTQVTVSS | high polyreactivity
QVKLVESGGVLVQAGGSLRITCAGSGRIFSRYVMGWYRQAPGKETEFVAYITWSGSSTFYADSVKGRFTISRDNAKNTGYLQMNSHKPEDSAVYFCAALGLLSPSPWGTHISEYDSWGQGTQVTVSS | low polyreactivity
QVKLVESGGVLVQAGGSLRLSCADSGRTFYPYAMGWYRQGPGKDRELVAAISRSGGSTYADSVKGRFTISRDNAKYTVYLQMNSLKPEDTAVYYCATRRKTYLSFNYDYWGQGTQVTVSS | low polyreactivity
QVKLVESGVGLVQAGGSLRLSCAASGSTLTRNAMGWYRQAPGKERELVAAITQRGGSTYYADSVKGRFTLSRDNAKNTVYLQMNSLKPEDTAVYYCNVRAFHKQYSEYDYWGQGTQVTVSS | high polyreactivity
QVLLQESGGGLVQAGGSLRLGCAASGTISPAYYMGRNHQAPGKEREFVAAITYGTNTYYADSVKGRFTISRDNAKNTVYLQMNSLKPEDTAVYYCSATAGYNGAHDYWGQGTQVTVSS | low polyreactivity
QVLLQESGGGLVQAGGSLRLGCAASGTISPAYYMGRSLQAPGKEREFVAAITYGTNTYYADSVKGRFTISRDNAKNTVYLQMNSLKPEDTAVYYCSATAGYNGAHDYWGQATQVTVSS | low polyreactivity
QVLLQESGGGLVQAGGSLRLGCAASGTISPAYYMGRYHQAPGQEREFVAAITYGTNTYYADSVKGRFTISRDNAKNTVYLQMNSLKPEDTAVYYCSATAGYNGAHDYWGQGTQVTVSS | low polyreactivity
QVLLQESGGGLVQAGGSLRLSCAASGNIFSAGGMGWYRQAPVNERELVAGIGTGTSTNYADRVKGRFTISRDNAKNTVYLQMNSLKPEDTAVDYCAAAYYSGLSHWYWGQGTQVTVSS | low polyreactivity
QVLLQESGGGLVQAGGSLRLSCAASGTISTDIRMGWYRLAPGKEREFVASIDGCSTTYYADSVKGRFTISRDNAKNTVYLQMNSLKPEDTAMYYCSAREATEFYLFYWGQGTQVTVSS | low polyreactivity
QVLLQESGGGLVQAGGSLRLSCAASGTISTDIRMGWYRLAPGKEREFVASIDGCSTTYYADSVKGRFTISRDNAKNTVYLQMNSLKPEDTEMYYCAAREATEFYLYYWGQGTQVTVSS | low polyreactivity
QVLLVDSGGGLVHAGGIHRLSCHASVGIFSWYDMGLYRQAPGKERELVAAISWSGGSTYYAYSVKGRFTISRDNAKNTVYLQMNSLKPEDTAVYYCAAYTADYYDYWGQGTQVTVSS | high polyreactivity
QVLLVEAGRGLVQAGGSLRLSCAASGSIVVGYAMGCYRQAPGKERELVATISYSGDSTYYADSVKGRFTISRDNAKNTVYLQMNSLNPEDSAVYYCATESNGSPYKGDYWGQGTQVTVSS | low polyreactivity

Sequence | polyreactivity (PSR sort gate)
QVLLVESGGGLVQAGGSLRISCAASGRISSRNAMGWYRQAPGKERELVAGITSGGSTNYADSLKGRFTISRDNAKNTVYLQMNSLKPEDTAVYYCAKRSRTYRYGYDYWGQGTQVTVSS | high polyreactivity
QVLLVESGGGLVQAGGSLRLICAASGSIFGVYAMGWFRQAAGKDRELVAAISLSGTSTYYADSVKGRFTISRDNAKNTVYLQMNSLKAEDTAVYYCAAPWRLFSLYDYWGQGTQVTVSS | low polyreactivity
QVLLVESGGGLVQAGGSLRLSCAASGFIFYLNGMGWYRQAPGKERELVAAISGRGGRTYYADSVKGRFTISRDNAKNTVYLQMNSLIPEDTAVYYCAAQYVPSRYGYWGQGTQVTVSS | high polyreactivity
QVLLVESGGGLVQAGGSLRLSCAASGFTFGTNAMVWYRQAPGKERELVAAISSRGGSTYYADSVKGRFTISRDNAKNTVYLLMNSLNPEDTAVYYCARRVARRQHEYGYWGQGTQVTVSS | high polyreactivity
QVLLVESGGGLVQAGGSLRLSCASSGNTFYVNVMGWYRQAPGKEREFVAAISTRGVSTSYADSVKGRYTISRDNAKNTVYLDMNTLKPEDTAVYYCAASFRRPQPKGTTYGYWGQGTQVTVSS | high polyreactivity
QVLLVESGGGLVQAGGSLRLSFAASGITFYGYDMGWYRQATGKERELVAAITSDGITNYADSVKGRFTISRDNAKNTVYLQMNSLKPEDTAVYYCAADVSFYRRYEWYYYWGQGTQVTVSS | low polyreactivity
QVLLVESGGGLVQAGGSLSISCAASGSTFGYYPMGWYRQAPGKEREFVAAISSRDGSTFYADSVQGRFTISRDNAKNTVYLQMNSLKPEDTAVYYCAKVFFHTPIVPEYDYWGQGTQVTVSS | low polyreactivity
QVLLVESGRVLVQAGGSLRLSCAASVSIFANYAMARYIQAPGKERELVASITSSARRTFYADSVKGRFTISRDNAKNTVYLQMNSLKPEVTAVYYCAAKHRRRTVSTRYDDWGQGTQGTVSS | high polyreactivity
QVLRVDSGGGLVQAGGSLRLSCAASGSIFGFYARGWDRQAPGTERELVAAITFSGGSTDYTDSVKGRFTISSDNAKNTVYLQMNSLKTEDTSVYYCADRGYAIYSYWYYEPYDYWGQGTQVTVSS | high polyreactivity
QVNLVESGGGLVQAGGSLRLSCAASGLTFARNAMGWYSQAPGKERELVASITSVGRTNYADSVKGRFTISRDNAKNTVYLEMNSLKPEDTAVYFCGAKPSWHGVYYWGQGTQVTVSS | low polyreactivity
QVNLVESGGVSVQAGGSLRLSCAASGLIFDKYAMGWYRQAPGKERELVAAITRSSGTTYYADSVKGRFTISRDNAKNTVYLLLISVTPEDTAVYYCPAPFIWGYWGVGYYYWGQGTHVTVSS | low polyreactivity
QVNLVETGGGLVQAVCSLRLSCAASGSIFGIYTMGWYRQAPGKERELVAAINSGGSTIYADSVKGRFTISRDNAKNTVYLQMNSLKPEDSAVYYWIAYIHPPGPRVYSREYDYWGQGTQLTVSS | low polyreactivity
QVNLVYSAGGLVQAGGILRLSCTASGCTFYYNAMGWYRQEPGKVREVVARISRSGGSTYEDSVKGRFTISRDNAKNTVYLPMNSLKPEDTAVYYCNADAYGTPEFTSYAVSYDLWGQGTQVTVSS | low polyreactivity
QVPLVESGGGLVQAGGILRLSCAASGRTFRYNVMGCYRQAPGKERELVASISRISGSTYYADSVKGRFTISRDNAKNTVYLQMNSLKPEDTAVYYCAATVKLKHYPYVGFGYWGQGTQVTVSS | high polyreactivity
QVPLVESGGGLVQAGGRLRLRCAASAFTFDSYAMGWNRQAPGKERELVAAITWSGGSTYSADSVKGRFTISRDNAKNTVYLQMNSLQPEDTAVYYCNVYRYDGDYWGQGTQVPVSS | high polyreactivity
QVPLVESGGGLVQAGGSLRLSCAASGGIFYSYAMGWYRQAPGKERELVPAIRTNGGTTYYADSVKGRFTISRDNAKNTVYLQLNSLKQEDTAVYYCDALPGSYYDRGEYDYWGQGTQVTVSS | low polyreactivity
QVPLVESGGGLVQAGGSLRLSCAASGLIFTGYAMGWYRQAPGKEREVVAAITSAGSTNYADSVKGRFTISRDNAKNTVYLQMNSLKPEDTAVYYCGASRTTTFSWYYLYYLVSKYYYWGQGTQVTVSS | low polyreactivity
QVPLVESGGGLVQAGGSLRLSCAASGLTVSSYAMGWYRQAPGKERELVAVFSRTGGSTYYADSVKGRFTISRDNAKNTVYLQMNSLKPEDTAVYYCAARSYNGWRYDSWGQGTQVTVSS | high polyreactivity
QVPLVESGGGLVQAGGSLRLSCAASGSICWSYAMGWYRQAPGTERELVASITRSGGSTYYADSVKGRFTISRDYAKNSLYLQLNSLKPEETAVYYCNARRTTRWGSSKYEYDYWGQATQVTVSS | high polyreactivity
QVPLVESGGGLVQAGGSLRLSCAASGSIFRNYALGWYRQAPGKERELVAGITQRGGRTYYADSVKGRFTSSRDNAKNTVYLQLNSLKPEDTAVYYCAASYRGVPEYDSWGQGTQVTVSS | high polyreactivity
QVPLVESGGGLVQSGGSLRISCAASGSIFAPNAMGWYRQAPGKERELVAAITSGGSTDYADYVKGRFTISRDNAKNTVYLQMNRLKPEDTAVYFCAKGYVPYAIFDYWGQATQVTVSS | low polyreactivity
